Test [1] concerns the target T1, native human purified properdin (Quidel; Cat No: A412) (human, UniProt P27918 28-469).
T1 construct: mature; Native purified commercial protein; In the haemolysis assays the properdin is the one present in normal human serum; also called human properdin; factor P
Briefly: SPR (ProteOn XPR36), human properdin amine-coupled on GLC chip, mAb injected, 25 C, PBS pH 7.4. On the procedure: The kinetic rate constants for the binding of anti properdin candidates to native human purified properdin (Quidel; Cat No: A412) were determined by Surface plasmon resonance-based measurement using the ProteOn XPR36 (Bio-Rad). All binding measurements were performed in PBS (pH 7.4, 0.005% Surfactant P20) at 25° C. To measure the binding rate constants of properdin to the mAbs, human properdin was immobilized onto a GLC sensor chip using amine coupling chemistry. […] The data, in the form of sensograms were analysed using data-fitting programs integrated in the ProteOn system. Binding affinities in terms of KD value are provided for tested antibodies in table 7.

For test [2], the target named is T2, recombinant human neonatal Fc receptor (rhFcRn), Sino Biologics (human, UniProt P55899 24-297; P61769 21-119).
T2 construct: Bought protein
T2 sequence (P55899 24-297 limits assumed, chain 1 of 2): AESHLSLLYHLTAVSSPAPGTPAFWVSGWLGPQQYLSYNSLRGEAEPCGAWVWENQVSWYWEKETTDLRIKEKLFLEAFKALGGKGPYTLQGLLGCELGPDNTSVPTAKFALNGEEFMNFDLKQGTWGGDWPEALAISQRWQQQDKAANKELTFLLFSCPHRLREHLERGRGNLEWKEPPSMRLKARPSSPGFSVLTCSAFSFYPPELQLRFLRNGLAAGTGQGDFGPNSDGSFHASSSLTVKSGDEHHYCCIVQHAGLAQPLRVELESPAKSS
T2 sequence (P61769 21-119 limits assumed, chain 2 of 2): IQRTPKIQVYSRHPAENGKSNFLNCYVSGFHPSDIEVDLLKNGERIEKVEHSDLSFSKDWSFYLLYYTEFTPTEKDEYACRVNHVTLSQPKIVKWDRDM
The test can be described thus: SPR (ProteOn XPR36), rhFcRn immobilized on GLC chip, antibody injected, PBS pH 6.0, 25 C. The protocol:
The kinetic constants for the binding of antibodies to recombinant human neonatal Fc receptor (hFcRn) were determined by Surface plasmon resonance-based measurement using the ProteOn XPR36 (Bio-Rad). Recombinant rhFcRn receptor (Sino Biologics) was immobilized on a GLC chip following manufacturer's instruction. […] Reactions were carried in PBS (pH 6.0, 0.005% Surfactant P20) at 25° C. After each sample run, the chip surface was regenerated using PBS, pH 7.4. The data, in the form of sensograms, was analysed using the data-fitting programs in the ProteOn system.

Test [3] deals with T1, native human purified properdin …. The test can be described thus: SPR, purified hybridoma antibody on human properdin.

T1 sequence (P27918 28-469): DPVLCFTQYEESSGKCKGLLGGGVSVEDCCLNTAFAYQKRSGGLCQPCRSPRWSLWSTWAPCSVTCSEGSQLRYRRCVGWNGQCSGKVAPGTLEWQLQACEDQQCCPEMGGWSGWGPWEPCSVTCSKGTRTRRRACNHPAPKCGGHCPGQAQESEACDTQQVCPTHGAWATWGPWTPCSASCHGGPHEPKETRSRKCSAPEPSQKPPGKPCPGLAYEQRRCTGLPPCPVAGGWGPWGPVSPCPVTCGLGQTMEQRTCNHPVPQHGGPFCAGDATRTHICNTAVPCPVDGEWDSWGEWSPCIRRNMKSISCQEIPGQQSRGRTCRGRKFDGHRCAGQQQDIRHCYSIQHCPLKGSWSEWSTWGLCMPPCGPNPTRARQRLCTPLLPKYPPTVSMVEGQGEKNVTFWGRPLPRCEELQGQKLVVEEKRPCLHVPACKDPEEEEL

B1: P11 (humanized version of E12) (antibody, IgG4, V domains shown)
VH: QVQLQQSGPELVRPGVSVKISCKGSGYTFTDYALHWVKQSHAESLEWIGVISTYYGDASYNQKFKDKATMTVDISSSTAYLELARLTSEDSAIYYCARDGYLDYWGQGTLVTVSS
VL: QSVLTQPPSVSAAPGQKVTISCSGSSSNIGNNYVSWYVQLPGTAPKLLIYDNNKRFSGVPDRFSGSKSGTSATLGITGLQTGDEADYYCGAWDGSLREAVFGGGTKVTVLR
notes: Full-length humanized IgG4 made in CHO-S; also called pZRCIII Hyg E12LC-E12HC
The term Kd denotes the constant that tells how readily two partners part at equilibrium. Usually koff stands for the rate constant with which the complex falls apart. A word on the kon: it is the second-order rate constant of association. On to B1, for which, in test [1], the dissociation constant (Kd) was 2.07 nM, the koff turned out to be 0.000867 s⁻¹ and the on-rate (kon) is 420000 M⁻¹ s⁻¹.

B2: P15 (GLS) (humanized version of 103B2 with GLS in constant region) (antibody, human IgG4 S228P)
heavy: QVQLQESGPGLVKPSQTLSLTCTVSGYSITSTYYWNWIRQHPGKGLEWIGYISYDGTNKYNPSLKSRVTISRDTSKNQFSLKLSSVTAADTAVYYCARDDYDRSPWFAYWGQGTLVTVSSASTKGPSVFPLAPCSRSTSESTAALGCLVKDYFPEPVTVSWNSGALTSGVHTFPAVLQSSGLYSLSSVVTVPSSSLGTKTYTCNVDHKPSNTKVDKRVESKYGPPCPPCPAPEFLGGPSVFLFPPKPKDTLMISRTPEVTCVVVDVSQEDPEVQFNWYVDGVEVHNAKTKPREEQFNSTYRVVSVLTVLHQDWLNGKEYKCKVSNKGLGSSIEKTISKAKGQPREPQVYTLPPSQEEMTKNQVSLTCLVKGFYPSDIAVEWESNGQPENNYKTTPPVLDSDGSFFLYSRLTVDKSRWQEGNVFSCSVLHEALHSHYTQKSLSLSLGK
VL: DIQMTQSPSSLSASVGDRVTITCLASQTIGTWLAWYQQKPGKAPKLLIYAATSLADGVPSRFSGSGSGTDFTLTISSLQPEDFATYYCQQLYSTPWTFGGGTKLEIKR
notes: also called pZRCIII Hyg P15LC-P15HC (IgG4 GLS); copies: 2 + 2
In test [1], B2 gave a dissociation constant Kd of 0.162 nM, a koff of 0.000128 s⁻¹ and an on-rate (kon) of 792000 M⁻¹ s⁻¹. Also, in test [2], the dissociation constant Kd stood at 66 nM, the koff worked out at 0.0329 s⁻¹ and the kon is 502000 M⁻¹ s⁻¹.

B3: P15 (humanized version of 103B2) (antibody, human IgG4 S228P)
heavy: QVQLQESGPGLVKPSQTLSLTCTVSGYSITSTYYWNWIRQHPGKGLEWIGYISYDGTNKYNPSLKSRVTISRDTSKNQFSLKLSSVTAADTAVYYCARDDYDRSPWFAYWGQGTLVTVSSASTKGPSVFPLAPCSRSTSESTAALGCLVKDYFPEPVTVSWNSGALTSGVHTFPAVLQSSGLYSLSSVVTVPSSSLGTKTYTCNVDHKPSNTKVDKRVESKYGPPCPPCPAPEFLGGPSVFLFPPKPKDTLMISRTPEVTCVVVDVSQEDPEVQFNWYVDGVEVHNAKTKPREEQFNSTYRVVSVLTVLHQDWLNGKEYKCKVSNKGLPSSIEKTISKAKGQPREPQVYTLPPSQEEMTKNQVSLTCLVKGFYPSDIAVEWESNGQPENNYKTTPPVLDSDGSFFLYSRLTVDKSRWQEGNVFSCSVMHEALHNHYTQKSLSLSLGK
VL: DIQMTQSPSSLSASVGDRVTITCLASQTIGTWLAWYQQKPGKAPKLLIYAATSLADGVPSRFSGSGSGTDFTLTISSLQPEDFATYYCQQLYSTPWTFGGGTKLEIKR
notes: also called pZRCIII Hyg P15LC-P15HC; copies: 2 + 2
In test [1], B3 had a Kd of 0.154 nM, an off-rate constant (koff) of 0.000142 s⁻¹ and a kon of 925000 M⁻¹ s⁻¹. Besides, in test [2], the equilibrium dissociation constant (Kd) amounted to 554 nM, the off-rate constant (koff) was determined as 0.125 s⁻¹ and the kon was 227000 M⁻¹ s⁻¹.

B4: 103B2 (antibody, V domains shown)
VH: KPSQSLSLTCSVTGYSITSTYYWNWIRQFPGNKLEWMGYISYDGTNKYNPSLKNRISITRDTSKNRFFLKLNSVTTEDTATYYCAGDDYDRSPWFAYWGQGTLVTVSA
VL: DIVLTQSPASQSASLGESVTITCLASQTIGTWLAWYQQKPGKSPQLLIYAATSLADGVPSRFSGSGSGTKFSFKISSLQAEDFVSYYCQQLYSTPWTFGGGTKLEIKR
notes: Murine hybridoma antibody purified by Protein A; also called murine anti-properdin hybridoma mAb 103B2
In test [3], B4 yielded a Kd of 0.731 nM, a dissociation rate constant (koff) of 0.000509 s⁻¹ and a kon of 696000 M⁻¹ s⁻¹.

B5: P14 (humanized version of 124F9) (antibody, IgG4, V domains shown)
VH: QVQLQESGPGLVKPSQTLSLTCTVSGYSITSGYYWNWIRQHPGKGLEWIGYISYDGGNKYNPSLKSRVTISRDTSKNQFSLKLSSVTAADTAVYYCARDLDGYESMDYWGQGTSVTVSS
VL: DIVMTQSPLSLSVTPGQPASISCKSSQSLLDINGKTYLNWYLQKPGQSPQLLIYLVSKLDSGVPDRFSGSGSGTDFTLKISRVEAEDVGVYYCWQGTHFPYTFGQGTKVEIKR
notes: Full-length humanized IgG4 made in CHO-S; also called pZRCIII Hyg P14LC-P14HC
In test [1], B5 yielded an equilibrium dissociation constant (Kd) of 2.81 nM, an off-rate constant (koff) of 0.00151 s⁻¹ and an association rate constant (kon) of 540000 M⁻¹ s⁻¹.

Source of the values: patent US20230054202A1 (ZYDUS LIFESCIENCES, published 2023).
